According to article PMC6515479, “An Investigation on Glucuronidation Metabolite Identification, Isozyme Contribution, and Species Differences of GL-V9 In Vitro and In Vivo” (Molecules, 2019):

How the values were obtained:
Type in all cases: in vitro ADME, human
[1] = substrate: COc1c(OCCCCN2CCCC2)cc(O)c2c(=O)cc(-c3ccccc3)oc12; assay: Recombinant enzyme kinetics of GL-V9 glucuronidation, rUGT1A8; settings: other: formation of 5-O-glucuronide GL-V9, rUGT1A8, protein 0.06 mg/mL, 1 h at 37 °C, mean ± SD, n = 3, pH 7.4
Experimental: [The source words this procedure for another target and says it was used here with some conditions changed.] (§1) The composition of the incubation system (200 μL) contained liver microsomes of different species (0.1 mg protein/mL), 5 mM saccharolactone (D-saccharic acid 1,4-lactone monohydrate), 10 mM MgCl2, alamethicin (50 μg/mg protein), Tris-HCl buffer (50 mM, pH 7.4) and GL-V9 (1 μM). After 5 min of preincubation at 37 °C, UDPGA (5 mM) was added to initiate the phase II reaction. Control incubation samples were performed without UDPGA or without substrates (GL-V9). The reaction was terminated by addition of ice-cold methanol (three volumes) after incubation for 1 h at 37 °C. Samples were vortexed, centrifuged at 21,500× g for 10 min and then stored at 4 °C until HPLC-UV-TripleTOF analysis. To confirm that these metabolites are conjugates resulting from glucuronidation reaction, enzymatic hydrolysis of samples was processed. β-glucuronidase (100 KU, Sigma) was added and the hydrolysis was performed overnight at 37 °C. The control samples were carried out without β-glucuronidase under the same condition.
(§2) Rates of the glucuronidation of GL-V9 were described as amounts of glucuronides formed per minute per milligram (pmol/min/mg). The calculation model of kinetic parameters was selected by the profile of Eadie-Hofstee plots. It often includes three possibilities: (1) the Eadie-Hofstee plot was linear, the formation rates of glucuronides (V) at different substrate concentrations (C) were fit to the standard Michaelis-Menten calculation of GraphPad Prism (version 6.02, GraphPad Software Inc., Guildford, Surrey, UK); (2) the Eadie-Hofstee plot was atypical kinetic-autoactivation, the rates and concentration were fit with the allosteric sigmoidal function of GraphPad Prism; (3) the Eadie-Hofstee plot was atypical kinetic-biphasic, the rates and concentration were fit with the […] of GraphPad Prism.

[2] = substrate: COc1c(OCCCCN2CCCC2)cc(O)c2c(=O)cc(-c3ccccc3)oc12; assay: Recombinant enzyme kinetics of GL-V9 glucuronidation, rUGT1A7; settings: other: formation of 5-O-glucuronide GL-V9, rUGT1A7, protein 0.05 mg/mL, 1 h at 37 °C, mean ± SD, n = 3, pH 7.4
Experimental: [The source words this procedure for another target and says it was used here with some conditions changed.] as §1, §2

[3] = substrate: COc1c(OCCCCN2CCCC2)cc(O)c2c(=O)cc(-c3ccccc3)oc12; assay: Recombinant enzyme kinetics of GL-V9 glucuronidation, rUGT1A9; settings: other: formation of 5-O-glucuronide GL-V9, rUGT1A9, protein 0.06 mg/mL, 1 h at 37 °C, mean ± SD, n = 3, pH 7.4

B1: rUGT1A8 (Homo sapiens) (protein)
chain: GKLLVVPMDGSHWFTMQSVVEKLILRGHEVVVVMPEVSWQLGKSLNCTVKTYSTSYTLEDLDREFMDFADAQWKAQVRSLFSLFLSSSNGFFNLFFSHCRSLFNDRKLVEYLKESSFDAVFLDPFDACGLIVAKYFSLPSVVFARGIACHYLEEGAQCPAPLSYVPRILLGFSDAMTFKERVRNHIMHLEEHLFCQYFSKNALEIASEILQTPVTAYDLYSHTSIWLLRTDFVLDYPKPVMPNMIFIGGINCHQGKPLPMEFEAYINASGEHGIVVFSLGSMVSEIPEKKAMAIADALGKIPQTVLWRYTGTRPSNLANNTILVKWLPQNDLLGHPMTRAFITHAGSHGVYESICNGVPMVMMPLFGDQMDNAKRMETKGAGVTLNVLEMTSEDLENALKAVINDKSYKENIMRLSSLHKDRPVEPLDLAVFWVEFVMRHKGAPHLRPAAHDLTWYQYHSLDVIGFLLAVVLTVAFITFKCCAYGYRKCLGKKGRVKKAHKSKTH
notes: purchased Corning (Woburn, MA, USA)
B1 was tested, and the Km [1] was 13.92 ± 1.05 µM, the Vmax [1] was 5.06e-05 µmol/min/mg and the Vmax/Km [1] was 3.64 µL/min/mg.

B2: rUGT1A7 (Homo sapiens) (protein)
chain: GKLLVVPMDGSHWFTMQSVVEKLILRGHEVVVVMPEVSWQLGRSLNCTVKTYSTSYTLEDQDREFMVFADARWTAPLRSAFSLLTSSSNGIFDLFFSNCRSLFNDRKLVEYLKESCFDAVFLDPFDACGLIVAKYFSLPSVVFARGIFCHYLEEGAQCPAPLSYVPRLLLGFSDAMTFKERVWNHIMHLEEHLFCPYFFKNVLEIASEILQTPVTAYDLYSHTSIWLLRTDFVLEYPKPVMPNMIFIGGINCHQGKPVPMEFEAYINASGEHGIVVFSLGSMVSEIPEKKAMAIADALGKIPQTVLWRYTGTRPSNLANNTILVKWLPQNDLLGHPMTRAFITHAGSHGVYESICNGVPMVMMPLFGDQMDNAKRMETKGAGVTLNVLEMTSEDLENALKAVINDKSYKENIMRLSSLHKDRPVEPLDLAVFWVEFVMRHKGAPHLRPAAHDLTWYQYHSLDVIGFLLAVVLTVAFITFKCCAYGYRKCLGKKGRVKKAHKSKTH
notes: as for B1
B2 showed a Km [2] of 3.25 ± 0.29 µM, a Vmax [2] of 3.11e-05 µmol/min/mg and a Vmax/Km [2] of 9.58 µL/min/mg.

B3: rUGT1A9 (Homo sapiens) (protein)
chain: GKLLVVPMDGSHWFTMRSVVEKLILRGHEVVVVMPEVSWQLGRSLNCTVKTYSTSYTLEDLDREFKAFAHAQWKAQVRSIYSLLMGSYNDIFDLFFSNCRSLFKDKKLVEYLKESSFDAVFLDPFDNCGLIVAKYFSLPSVVFARGILCHYLEEGAQCPAPLSYVPRILLGFSDAMTFKERVRNHIMHLEEHLLCHRFFKNALEIASEILQTPVTEYDLYSHTSIWLLRTDFVLDYPKPVMPNMIFIGGINCHQGKPLPMEFEAYINASGEHGIVVFSLGSMVSEIPEKKAMAIADALGKIPQTVLWRYTGTRPSNLANNTILVKWLPQNDLLGHPMTRAFITHAGSHGVYESICNGVPMVMMPLFGDQMDNAKRMETKGAGVTLNVLEMTSEDLENALKAVINDKSYKENIMRLSSLHKDRPVEPLDLAVFWVEFVMRHKGAPHLRPAAHDLTWYQYHSLDVIGFLLAVVLTVAFITFKCCAYGYRKCLGKKGRVKKAHKSKTH
notes: as for B1
With B3 the Km [3] was 4.72 ± 0.28 µM and the Vmax [3] was 0.000148 µmol/min/mg.
